Results: patent publication US20180185504A1 (Regeneron, published 2018)

Key:
[1] = target: T1, hPRLR-mmH (recombinant extracellular domain of hPRLR with a C-terminal myc-myc-hexahistidine tag) (human); experiment: H/D exchange MS; hPRLR-mmH bound to H1H6958N2 on NHS agarose beads
T1 construct: the entry includes the myc-myc-His6 tag; also called truncated form of PRLR
T1 chain: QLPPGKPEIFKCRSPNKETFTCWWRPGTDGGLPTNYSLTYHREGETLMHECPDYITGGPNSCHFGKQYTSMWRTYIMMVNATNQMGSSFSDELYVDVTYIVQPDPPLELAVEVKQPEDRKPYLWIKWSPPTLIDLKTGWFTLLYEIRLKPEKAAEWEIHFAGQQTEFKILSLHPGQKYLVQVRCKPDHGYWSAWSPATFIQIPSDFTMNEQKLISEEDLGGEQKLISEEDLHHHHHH

[2] = target: T2, mouse PRLR with an HA tag on HEK293 cells (mouse, UniProt Q08501 20-608); experiment: FACS on HEK293/mPRLR cells
T2 construct: whole, on cells; also called HEK293/mPRLR; rodent PRLR; not shown: HA tag
T2 sequence (looked up): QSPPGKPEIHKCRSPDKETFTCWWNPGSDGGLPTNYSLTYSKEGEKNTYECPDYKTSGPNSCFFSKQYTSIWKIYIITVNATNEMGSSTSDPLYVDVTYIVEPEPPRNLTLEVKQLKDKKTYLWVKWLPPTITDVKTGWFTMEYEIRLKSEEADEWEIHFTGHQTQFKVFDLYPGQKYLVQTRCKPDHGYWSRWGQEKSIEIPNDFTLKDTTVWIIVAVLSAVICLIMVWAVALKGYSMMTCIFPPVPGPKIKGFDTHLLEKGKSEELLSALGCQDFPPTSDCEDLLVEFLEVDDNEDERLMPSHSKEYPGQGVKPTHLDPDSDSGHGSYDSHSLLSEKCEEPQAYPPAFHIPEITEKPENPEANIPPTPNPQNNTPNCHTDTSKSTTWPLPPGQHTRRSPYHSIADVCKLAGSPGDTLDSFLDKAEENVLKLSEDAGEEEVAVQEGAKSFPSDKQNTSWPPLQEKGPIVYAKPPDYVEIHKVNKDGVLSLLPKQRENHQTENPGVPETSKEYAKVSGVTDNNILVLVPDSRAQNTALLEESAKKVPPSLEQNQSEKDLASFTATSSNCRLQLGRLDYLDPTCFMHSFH

[3] = target: T3, dimeric form of cynomolgus monkey (Macaca fascicularis) PRLR (Example 12 ELISA) (cynomolgus monkey (Macaca fascicularis)); experiment: blocking ELISA: 10 nM dimeric monkey PRLR premixed with mAb (520 pM to 30 nM), plate-coated human PRL
T3 construct: also called monkey PRLR
Procedure: (§1) Dimeric forms of human or cynomolgus monkey (Macaca fascicularis) PRLR and monomeric human PRL were used in this assay. […] After 1-hour incubation, captured PRLR was detected with HRP-conjugated goat anti-Fcγ antibody and visualized with TMB colorimetric substrate by measuring absorbance at 450 nm. […] Mixtures were then added to plates coated with in 1 μg/mL PRL and captured PRLR was detected as described above. Data were analyzed using a four-parameter logistic equation over an 11-point response curve in GraphPad Prism software and IC₅₀ values were calculated.

[4] = target: T4, dimeric form of human PRLR (Example 12 ELISA) (human); experiment: blocking ELISA: 10 nM dimeric human PRLR premixed with mAb (520 pM to 30 nM), plate-coated human PRL
T4 construct: PRLR'
T4 sequence (P16471 whole entry, looked up): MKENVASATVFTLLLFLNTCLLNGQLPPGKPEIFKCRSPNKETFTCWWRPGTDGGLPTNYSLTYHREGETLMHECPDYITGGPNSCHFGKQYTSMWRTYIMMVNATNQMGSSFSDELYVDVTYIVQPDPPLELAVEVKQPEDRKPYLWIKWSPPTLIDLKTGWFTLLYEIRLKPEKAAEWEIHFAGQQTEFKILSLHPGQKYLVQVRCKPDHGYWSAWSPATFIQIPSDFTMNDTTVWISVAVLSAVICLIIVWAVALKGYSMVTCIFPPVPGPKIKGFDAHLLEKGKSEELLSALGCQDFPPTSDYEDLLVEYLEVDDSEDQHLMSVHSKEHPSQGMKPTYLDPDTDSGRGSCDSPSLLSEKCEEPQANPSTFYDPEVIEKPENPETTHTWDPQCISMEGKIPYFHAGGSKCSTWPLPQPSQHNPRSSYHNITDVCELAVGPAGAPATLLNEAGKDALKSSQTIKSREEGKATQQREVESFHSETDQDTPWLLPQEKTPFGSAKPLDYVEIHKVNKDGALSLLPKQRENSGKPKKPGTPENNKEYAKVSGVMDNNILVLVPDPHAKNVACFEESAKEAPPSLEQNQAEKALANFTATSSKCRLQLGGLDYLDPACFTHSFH
Procedure: as §1

[5] = target: T5, human prolactin receptor (PRLR) on cells (human, UniProt P16471 25-622); experiment: cell-based or functional assay
T5 sequence: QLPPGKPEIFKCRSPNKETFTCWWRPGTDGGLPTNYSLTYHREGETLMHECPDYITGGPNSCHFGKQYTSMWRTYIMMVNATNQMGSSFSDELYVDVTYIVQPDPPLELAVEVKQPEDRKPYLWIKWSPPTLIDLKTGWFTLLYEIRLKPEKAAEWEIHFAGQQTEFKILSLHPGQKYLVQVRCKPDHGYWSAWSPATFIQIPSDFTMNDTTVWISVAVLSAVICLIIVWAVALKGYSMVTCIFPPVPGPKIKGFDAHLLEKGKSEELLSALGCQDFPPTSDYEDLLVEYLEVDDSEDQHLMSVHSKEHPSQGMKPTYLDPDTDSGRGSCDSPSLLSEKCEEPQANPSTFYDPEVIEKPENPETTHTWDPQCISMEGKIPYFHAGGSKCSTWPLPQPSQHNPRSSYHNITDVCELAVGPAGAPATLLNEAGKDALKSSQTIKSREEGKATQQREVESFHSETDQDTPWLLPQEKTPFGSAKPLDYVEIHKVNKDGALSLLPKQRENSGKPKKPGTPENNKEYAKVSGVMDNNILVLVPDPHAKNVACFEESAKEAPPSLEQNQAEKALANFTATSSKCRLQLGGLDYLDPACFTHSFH

[6] = target: T6, hPRLR-mmH (recombinant extracellular domain of hPRLR with a C-terminal myc-myc-hexahistidine tag) (human); experiment: H/D exchange; hPRLR-mmH captured on H1H6958N2 agarose beads
T6 construct: also called truncated form of PRLR
T6 chain: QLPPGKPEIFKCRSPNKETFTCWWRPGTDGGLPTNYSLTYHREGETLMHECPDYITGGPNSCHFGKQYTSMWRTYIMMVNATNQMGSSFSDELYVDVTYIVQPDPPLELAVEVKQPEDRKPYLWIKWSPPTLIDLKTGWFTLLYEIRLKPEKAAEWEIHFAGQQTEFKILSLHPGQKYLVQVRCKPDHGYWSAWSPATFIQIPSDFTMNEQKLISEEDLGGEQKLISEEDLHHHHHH

IL-6R = target: T7, IL-6R (human, UniProt P08887 20-468); experiment: flow cytometry, anti-IL-6R antibody on KG-1 cells (endogenous IL-6R), PE anti-human secondary
T7 construct: whole, on cells
T7 sequence (looked up): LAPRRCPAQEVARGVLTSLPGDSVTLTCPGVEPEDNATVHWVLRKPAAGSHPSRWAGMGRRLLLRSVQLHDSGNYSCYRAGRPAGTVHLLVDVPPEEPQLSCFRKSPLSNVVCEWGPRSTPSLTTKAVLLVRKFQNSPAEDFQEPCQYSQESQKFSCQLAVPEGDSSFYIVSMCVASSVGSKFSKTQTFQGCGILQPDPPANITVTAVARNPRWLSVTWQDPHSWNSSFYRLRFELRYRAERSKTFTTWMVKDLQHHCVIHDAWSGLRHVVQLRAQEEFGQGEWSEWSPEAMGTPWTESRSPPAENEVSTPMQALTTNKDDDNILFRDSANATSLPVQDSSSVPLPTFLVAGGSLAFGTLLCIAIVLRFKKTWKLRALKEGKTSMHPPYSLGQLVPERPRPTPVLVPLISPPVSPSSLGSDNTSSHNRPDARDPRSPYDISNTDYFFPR

B1: H1H6958N2 (antibody, human IgG1, V domains shown)
VH: QVQLVESGGGVVQPGRSLRLSCGASGFTFRNYGMQWVRQGPGKGLEWVTLISFDGNDKYYADSVKGRFTISRDNSKNTLFLQMNSLRTEDTAVYYCARGGDFDYWGQGTLVTVSS
VL: DIQMTQSPSSLSASVGDRVTITCRASQDIRKDLGWYQQKPGKAPKRLIYAASSLHSGVPSRFSGSGSGTEFTLTISSLQPEDFATYYCLQHNSYPMYTFGQGTKLEIK
notes: Tested with human IgG1 Fc (H1H); also called HIH6958N2
Does B1 bind [1]?
Result: binds

Does B1 bind [2]?
Result: no binding

And the IC50 [3]?
The IC50 was 5.8 nM.

And the IC50 [4]?
The IC50 was 5 nM.

And the “IC50, block of PRL-induced STAT5-luciferase activity (2 nM PRL)” value [5]?
Its value is 0.4 nM.

B2: H1H6958N2 (antibody, V domains shown)
VH: QVQLVESGGGVVQPGRSLRLSCGASGFTFRNYGMQWVRQGPGKGLEWVTLISFDGNDKYYADSVKGRFTISRDNSKNTLFLQMNSLRTEDTAVYYCARGGDFDYWGQGTLVTVSS
VL: DIQMTQSPSSLSASVGDRVTITCRASQDIRKDLGWYQQKPGKAPKRLIYAASSLHSGVPSRFSGSGSGTEFTLTISSLQPEDFATYYCLQHNSYPMYTFGQGTKLEIK
notes: In the H/D exchange experiment the antibody was covalently attached to NHS agarose beads; also called H2M6958N2 (same variable domains, mouse IgG2 Fc); anti-PRLR antibody H1H6958N2
Does B2 bind [6]?
Result: binds

B3: VV6A9-5 (antibody, V domains shown)
VH: EVQLVESGGGLVQPGRSLRLSCAASGFTFDDYALHWVRQAPGKGLEWVSGVSWNGGRIGYADSVKGRFTISRDNAKNSLFLQMNSLRVEDTALYYCAKGRDAFDIWGQGTLVTVSS
VL: DIQMTQSPSSVSASVGDRVTITCRASQGISSWLAWYQQKPGKAPKLLIYAASSLQSGVPSRFSGSGSGTDFTLTISSLQPEDFATYYCQHAYSFPYTFGQGTKLEIK
How did the “Fold Over Background (FACS MFI above isotype control)” value (IL-6R) turn out when B3 was run?
Its value is 7 fold over background.
